Data from the supplement of paper PMC7125110.
± gives the standard error. For part of these data: Fewer inactive variants are shown than the library holds.

B1: glmS ribozyme (parent)
chain: AUAAAAGCGCCAGAACUACAGAAAUGUAGUUGACGAGGAGGAGGUUUAUCGAAUUUUCGGCGGAUGCCUCCAAA

Columns and labels:
Settings in all cases: with glucosamine-6-phosphate
glucosamine-6-phosphate [1] = variants of: B1; experiment: kcat; higher = faster cleavage; RNA array
How it was run: (§1)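 Tiles bearing barcoded ribozyme variants, transcribed in situ by E. coli RNA polymerase on sequenced MiSeq chips, were imaged over ~14 h at 37 °C using a hybridised Cy3 probe. Glucosamine-6-phosphate was supplied at 40 μM to 10 mM in HEPES/KCl/Mg(OAc)2 buffer. kobs came from one- or two-exponential decay fits to normalised per-tile medians, and weighted Michaelis–Menten fits then provided kcat and KM.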

glucosamine-6-phosphate [2] = variants of: B1; experiment: KM; higher = weaker cofactor use; RNA array
How it was run: as §1

glucosamine-6-phosphate [3] = variants of: B1; experiment: self-cleavage kobs at 40 uM GlcN6P; higher = faster cleavage; RNA array
How it was run: as §1

glucosamine-6-phosphate [4] = variants of: B1; experiment: self-cleavage kobs at 160 uM GlcN6P; higher = faster cleavage; RNA array
How it was run: as §1

glucosamine-6-phosphate [5] = variants of: B1; experiment: self-cleavage kobs at 2500 uM GlcN6P; higher = faster cleavage; RNA array
How it was run: as §1

glucosamine-6-phosphate [6] = variants of: B1; experiment: self-cleavage kobs at 10000 uM GlcN6P; higher = faster cleavage; RNA array
How it was run: as §1

glucosamine-6-phosphate [7] = variants of: B1; experiment: self-cleavage kobs at 640 uM GlcN6P; higher = faster cleavage; RNA array
How it was run: as §1

| Variant | kcat (glucosamine-6-phosphate [1]) [s⁻¹] | KM (glucosamine-6-phosphate [2]) [mM] | self-cleavage kobs at 40 uM GlcN6P (glucosamine-6-phosphate [3]) [s⁻¹] | self-cleavage kobs at 160 uM GlcN6P (glucosamine-6-phosphate [4]) [s⁻¹] | self-cleavage kobs at 2500 uM GlcN6P (glucosamine-6-phosphate [5]) [s⁻¹] | self-cleavage kobs at 10000 uM GlcN6P (glucosamine-6-phosphate [6]) [s⁻¹] | self-cleavage kobs at 640 uM GlcN6P (glucosamine-6-phosphate [7]) [s⁻¹] |
| --- | --- | --- | --- | --- | --- | --- | --- |
| G51A C71A | 1.9e-05 ± 9e-07 | 0.105 ± 0.032 |  |  |  |  |  |
| A52C C67U | 1.21e-05 ± 4.7e-06 |  |  |  |  |  |  |
| A6G U30G | 0.000154 ± 1.6e-05 | 5.37 ± 1.4 | < 1e-05 | < 1e-05 | 5.13e-05 ± 1.9e-05 | 9.98e-05 ± 1.4e-05 |  |
| U30G U54C | 0.00885 ± 0.00078 | 2.17 ± 0.27 | 0.000148 ± 2.5e-05 | 0.000617 ± 0.00011 | 0.00471 ± 0.0008 | 0.00714 ± 0.001 | 0.00235 ± 0.00041 |
| U55G C70G | 0.000127 ± 2.5e-05 |  | 2.75e-05 ± 1.4e-05 | 7.54e-05 ± 1.6e-05 | 0.000184 ± 3.8e-05 | 9.38e-05 ± 1.8e-05 | 0.00014 ± 1.9e-05 |
| A12G C16U | 0.00221 ± 0.00096 |  |  | 4.12e-05 ± 9.2e-06 | 0.00036 ± 4.1e-05 | 0.00119 ± 0.0001 | 0.000179 ± 2.1e-05 |
| A52G U55C | 0.00205 ± 0.00032 | 3.68 ± 0.85 | 3.24e-05 ± 8.4e-06 | 8.26e-05 ± 1.2e-05 | 0.000739 ± 9.4e-05 | 0.00158 ± 0.00017 | 0.000325 ± 5e-05 |
| G37C A42G | 7.11e-05 ± 9.9e-06 |  |  |  | 4.76e-05 ± 1.3e-05 | 5.87e-05 ± 1e-05 |  |
| C58A G66A | 0.000322 ± 5.8e-05 | 4.64 ± 1.5 |  |  | 9.9e-05 ± 1.6e-05 | 0.000228 ± 2.8e-05 | 4.87e-05 ± 1e-05 |
| U46G C67U | 0.00338 ± 0.0012 | 1.2 ± 0.59 | 0.000125 ± 1.7e-05 | 0.000317 ± 5.3e-05 | 0.00176 ± 0.00028 | 0.00457 ± 0.00079 | 0.00143 ± 0.00015 |
| U30G G32A | 0.00542 ± 0.0022 | 4.72 ± 2.3 | 5.91e-05 ± 1.1e-05 | 0.00017 ± 2.3e-05 | 0.00123 ± 0.0003 | 0.00438 ± 0.00065 | 0.000709 ± 9.2e-05 |
| U55G U56G | 0.0156 ± 0.0072 |  | 0.000205 ± 3e-05 | 0.000797 ± 0.00014 | 0.00561 ± 0.00078 | 0.0215 ± 0.0038 | 0.00307 ± 0.00039 |
| A12G A52G A53G | 2.52e-05 ± 7.9e-06 |  |  |  |  |  |  |
| U30A U69A | 5.09e-05 ± 2.2e-05 |  |  | 5.73e-05 ± 2.4e-05 | 9.65e-05 ± 1.8e-05 | 3.22e-05 ± 1.1e-05 |  |
| G13C A53U | 0.000137 ± 1.4e-05 | 5.25 ± 1.3 |  |  | 4.93e-05 ± 1.6e-05 | 8.95e-05 ± 1.3e-05 |  |
| A33C U47C | 4.24e-05 ± 1.3e-05 |  |  |  | 5.42e-05 ± 1.3e-05 | 3.37e-05 ± 1e-05 |  |

| Variant | kcat (glucosamine-6-phosphate [1]) [s⁻¹] | KM (glucosamine-6-phosphate [2]) [mM] | self-cleavage kobs at 40 uM GlcN6P (glucosamine-6-phosphate [3]) [s⁻¹] | self-cleavage kobs at 160 uM GlcN6P (glucosamine-6-phosphate [4]) [s⁻¹] | self-cleavage kobs at 2500 uM GlcN6P (glucosamine-6-phosphate [5]) [s⁻¹] | self-cleavage kobs at 10000 uM GlcN6P (glucosamine-6-phosphate [6]) [s⁻¹] | self-cleavage kobs at 640 uM GlcN6P (glucosamine-6-phosphate [7]) [s⁻¹] |
| --- | --- | --- | --- | --- | --- | --- | --- |
| U45G U56A | 0.00335 ± 0.00043 | 1.72 ± 0.28 | 7.59e-05 ± 1.8e-05 | 0.000299 ± 6.2e-05 | 0.00206 ± 0.00051 |  | 0.000848 ± 0.00019 |
| C16G U31C | 0.000606 ± 0.00011 | 3.72 ± 0.98 |  |  | 0.000269 ± 4.6e-05 | 0.000401 ± 0.00011 | 8.88e-05 ± 1.7e-05 |
| U55C C70A | 1.26e-05 ± 1.6e-06 |  | < 1e-05 |  |  |  |  |
| G13C C67U | 4.46e-05 ± 7.3e-06 |  |  |  | 4.34e-05 ± 1.3e-05 | 4.04e-05 ± 7.8e-06 |  |
| A33G C67G | 1.67e-05 ± 4.8e-06 |  |  |  |  |  |  |
| C16U G37U G51C | < 1e-05 |  | < 1e-05 | < 1e-05 |  |  | < 1e-05 |
| U54C U69A | 0.000112 ± 7.5e-06 | 0.082 ± 0.022 | 3.96e-05 ± 1.5e-05 | 6.58e-05 ± 2.2e-05 | 0.000123 ± 3.1e-05 | 0.000105 ± 2e-05 | 0.000111 ± 3.8e-05 |
| A48C U69C | 7.16e-05 ± 1.1e-05 |  | < 1e-05 | < 1e-05 | 9.22e-05 ± 2.4e-05 | 6.44e-05 ± 1.5e-05 | 6.02e-05 ± 1.9e-05 |
| C50G | 0.000456 ± 6.7e-05 | 0.0907 ± 0.038 | 0.000121 ± 1.5e-05 | 0.000444 ± 4.8e-05 | 0.000399 ± 4e-05 | 0.000408 ± 5.8e-05 | 0.000443 ± 4.5e-05 |
| A39C U47A | 0.00575 ± 0.0015 | 4.09 ± 1.4 | 8.72e-05 ± 1.3e-05 | 0.000179 ± 2.3e-05 | 0.0021 ± 0.00033 | 0.00409 ± 0.00043 | 0.000865 ± 0.0001 |
| A15U U56G | 0.00786 ± 0.0027 | 3.29 ± 1.5 | 0.000149 ± 2.5e-05 | 0.000265 ± 5e-05 | 0.00363 ± 0.00053 | 0.00565 ± 0.00088 | 0.00143 ± 0.00018 |
| C50U U54A C70U | 3.48e-05 ± 1e-05 |  |  |  | 2.99e-05 ± 1.5e-05 |  | 6e-05 ± 2.4e-05 |
| A39C G40U | 0.000135 ± 1.1e-05 | 1.69 ± 0.48 |  |  | 7.56e-05 ± 9.8e-06 | 0.000118 ± 1e-05 | 5.01e-05 ± 1.7e-05 |
| G29A G59U | 1.01e-05 ± 3.5e-06 |  |  |  |  |  | < 1e-05 |
| A14C A39C | 0.000549 ± 0.00015 | 4.66 ± 2 |  |  | 0.000254 ± 3.3e-05 | 0.000346 ± 4.9e-05 | 5.77e-05 ± 9.6e-06 |
